The test system of assay [1] is low and high density lipoproteins. The assay is described as follows: Association with lipoproteins on incubation with DFP-treated human plasma. The assay is classed as binding. The following applies: human plasma previously treated with DFP. The text has this: An unusual feature of the native plasma PAF acetylhydrolase is that it is tightly associated with lipoproteins in circulation, and its catalytic efficiency is influenced by the lipoprotein environment. […] PAF-AH protects low density lipoproteins from modification under oxidizing conditions in vitro and may have such a role in vivo. Administration of PAF-AH is thus indicated for the suppression of the oxidation of lipoproteins in atherosclerotic plaques as well as to resolve inflammation.

In the next assay the test system is PAF-induced foot edema. In words: PAF-induced rat foot edema model. The assay is classed as in vivo. As to the method: Six to eight-week-old female Long Evans rats (Charles River, Wilmington, Mass.), weighing 180-200 grams, were used for all experiments. Prior to experimental manipulations, animals were anesthetized with a mixture of the anesthetics Ketaset (Fort Dodge laboratories, Fort Dodge, Iowa), Rompun (Miles, Shawnee Mission, Kans.), and Ace Promazine (Aveco, Fort Dodge, Iowa) administered subcutaneously at approximately 2.5 mg Ketaset, 1.6 mg Rompun, 0.2 mg Ace Promazine per animal per dose. Edema was induced in the foot by administration of either PAF or zymosan as follows. PAF (Sigma #P-1402) was freshly prepared for each experiment from a 19.1 mM stock solution stored in chloroform/methanol (9:1) at −20° C. Required volumes were dried down under N2, diluted 1:1000 in a buffer containing 150 mM NaCl, […] Tris pH 7.5, and 0.25% BSA, and sonicated for five minutes. Animals received 50 μl PAF (final dose of 0.96 nmoles) subcutaneously between the hind foot pads, and edema was assessed after 1 hour and again after 2 hours in some experiments. Zymosan A (Sigma #A-8800) was freshly prepared for each experiment as a suspension of 10 mg/ml in PBS. Animals received 50 μl of zymosan (final dose of 500 μg) subcutaneously between the hind foot pads and edema was assessed after 2 hours.
Edema was quantitated by measuring the foot volume immediately prior to administration of PAF or zymosan and at indicated time point post-challenge with PAF or zymosan. Edema is expressed as the increase in foot volume in milliliters. Volume displacement measurements were made on anesthetized animals using a plethysmometer (UGO Basile, model #7150) which measures the displaced water volume of the immersed foot. […] Repeated measurements of the same foot using this technique indicate the precision to be within 5%.
PAF-AH was injected locally between the foot pads, or systematically by IV injection in the tail vein. For local administration rats received 100 μl PAF-AH (4000-6000 U/ml) delivered subcutaneously between the right hind foot pads. Left feet served as controls by administration of 100 μl carrier (buffered salt solution). For systemic administration of PAF-AH, rats received the indicated units of PAF-AH in 300 μL of carrier administered IV in the tail vein. Controls received the appropriate volume of carrier IV in the tail vein.
Rats (N=4) were injected with 100 μl of PAF-AH (4000-6000 U/ml) subcutaneously between the right foot pads. Left feet were injected with 100 μl carrier (buffered salt solution). Four other rats were injected only with carrier. All rats were immediately challenged with PAF via subcutaneous foot injection and foot volumes assessed 1 hour post-challenge. FIG. 4, wherein edema is expressed as average increase in foot volume (ml)±SEM for each treatment group, illustrates that PAF-induced foot edema is blocked by local administration of PAF-AH.
Rats (N=4 per group) were pretreated IV with either PAF-AH (2000 U in 300 μl carrier) or carrier alone, 15 minutes prior to PAF challenge. Edema was assessed 1 and 2 hours after PAF challenge. FIG. 5, wherein edema is expressed as average increase in volume (ml)±SEM for each treatment group, illustrates that IV administration of PAF-AH blocked PAF induced foot edema at one and two hours post challenge. […] Mean volume increase for the PAF-AH treated group at two hours was 0.10 ml±0.08 (SEM), versus 0.56 ml±0.11 for carrier treated controls.
Rats (N=4 per group) were pretreated IV with either PAF-AH (2000 U in 300 μl carrier) or carrier alone. Fifteen minutes after pretreatment, groups received either PAF or zymosan A, and foot volume was assessed after 1 and 2 hours, respectively.
In two separate experiments, groups of rats (N=3 to 4 per group) were pretreated IV with either serial dilutions of PAF-AH or carrier control in a 300 μl volume, 15 minutes prior to PAF challenge. Both feet were challenged with PAF (as described above) and edema was assessed after 1 hour. […]

A further assay concerns PAF-induced pleurisy. The assay is described as follows: PAF-induced pleurisy (Evans blue vascular leakage). The following applies: 300 μl PAF-AH IV 15 minutes before 2.0 nmol PAF into pleural space, 1 hour. The assay is classed as in vivo, rat.

Where only a bound is given, the exact number is not on record here.

B1: PAF-AH: Recombinant human plasma platelet-activating factor acetylhydrolase (beginning at Ile42) expressed in E. coli from construct pUC trp AH (protein)
chain: IQVLMAAASFGQTKIPRGNGPYSVGCTDLMFDHTNKGTFLRLYYPSQDNDRLDTLWIPNKEYFWGLSKFLGTHWLMGNILRLLFGSMTTPANWNSPLRPGEKYPLVVFSHGLGAFRTLYSAIGIDLASHGFIVAAVEHRDRSASATYYFKDQSAAEIGDKSWLYLRTLKQEEETHIRNEQVRQRAKECSQALSLILDIDHGKPVKNALDLKFDMEQLKDSIDREKIAVIGHSFGGATVIQTLSEDQRFRCGIALDAWMFPLGDEVYSRIPQPLFFINSEYFQYPANIIKMKKCYSPDKERKMITIRGSVHQNFADFTFATGKIIGHMLKLKGDIDSNVAIDLSNKASLAFLQKHLGLHKDFDQWDCLIEGDDENLIPGTNINTTNQHIMLQNSSGIEKYN
B1: the Association with lipoproteins entry in assay [1] was “associated with low and high density lipoproteins”. Moreover, the “Mean increase in volume” value in the assay on PAF-induced foot edema (2000 U IV 15 minutes prior to PAF, after 1 hour, ±SEM) was found to be 0.08 ± 0.02 mL. This molecule also registered a Mean volume increase in the assay on PAF-induced foot edema (2000 U IV 15 minutes prior to PAF, at two hours, ±SEM) of 0.10 mL. Further, the “IV dose range found to dramatically reduce PAF mediated inflammation” value in the assay with PAF-induced foot edema (IV injections) is 160-2000 U/rat. Also, the ID50 dosage with PAF-induced foot edema (IV, summary of dosing studies) is listed as 40-80 U/rat. Further, the “PAF-induced edema compared with PAF antagonists” value with PAF-induced foot edema (PAF-AH 2000 U IV vs CV3988 or Alprazolam 2 mg IP) was “reduction in PAF-induced edema beyond that afforded by the established PAF antagonists CV3988 and Alprazolam”. Moreover, the “Plasma concentration predicted to block PAF-elicited edema” value in the assay with PAF-induced foot edema (calculated from plasma volume for 180-200 gram rats) was 25-40 U/ml. Moreover, the “Increase in foot volume” value with PAF-induced foot edema (local s.c. 100 μl PAF-AH (4000-6000 U/ml), 1 hour post PAF challenge, ±SEM) amounted to 0.08 mL. For the same molecule, in the assay on PAF-induced foot edema (single 2000 U IV dose), the “Duration of protection from PAF induced edema” value was “at least 24 hours”. In addition, the “Reduction in inflammation (vascular leakage, Evans blue)” value in the assay on PAF-induced pleurisy is listed as more than 80%.

Source of the values: patent US20050100540A1, “Platelet-activating factor acetylhydrolase” (priority 1993, published 2005).
